Measured values from article PMC3817407.

T1: ECF30_35
T1 chain: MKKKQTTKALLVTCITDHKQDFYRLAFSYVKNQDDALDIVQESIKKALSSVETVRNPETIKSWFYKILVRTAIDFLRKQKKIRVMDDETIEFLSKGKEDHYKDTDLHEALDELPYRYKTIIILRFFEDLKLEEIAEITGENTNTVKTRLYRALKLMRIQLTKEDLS

T2: ECF25_1645
T2 chain: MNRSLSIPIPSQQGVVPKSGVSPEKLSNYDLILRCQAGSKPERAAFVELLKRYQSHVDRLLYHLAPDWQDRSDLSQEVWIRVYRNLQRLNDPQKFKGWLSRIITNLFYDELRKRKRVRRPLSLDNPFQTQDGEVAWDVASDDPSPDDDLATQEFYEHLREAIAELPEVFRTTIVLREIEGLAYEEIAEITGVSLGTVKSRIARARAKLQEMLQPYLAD

T3: ECF38_1322
T3 chain: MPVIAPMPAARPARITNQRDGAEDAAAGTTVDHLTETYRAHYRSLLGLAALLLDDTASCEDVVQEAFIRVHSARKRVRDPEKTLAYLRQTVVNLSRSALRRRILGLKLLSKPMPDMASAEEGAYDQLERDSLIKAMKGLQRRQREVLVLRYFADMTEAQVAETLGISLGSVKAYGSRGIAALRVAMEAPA

T4: ECF37_2513
T4 chain: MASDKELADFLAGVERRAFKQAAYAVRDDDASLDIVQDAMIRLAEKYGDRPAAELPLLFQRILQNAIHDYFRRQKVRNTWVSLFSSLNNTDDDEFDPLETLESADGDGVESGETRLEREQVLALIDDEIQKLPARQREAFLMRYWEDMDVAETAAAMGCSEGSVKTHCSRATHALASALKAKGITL

T5: ECF27_4265
T5 chain: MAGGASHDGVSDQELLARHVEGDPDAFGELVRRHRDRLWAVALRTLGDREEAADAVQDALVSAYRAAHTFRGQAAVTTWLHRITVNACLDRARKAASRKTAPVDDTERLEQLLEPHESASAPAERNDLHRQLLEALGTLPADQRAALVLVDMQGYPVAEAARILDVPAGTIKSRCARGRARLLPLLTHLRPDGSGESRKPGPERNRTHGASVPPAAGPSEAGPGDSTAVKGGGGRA

B1: AS33_375 (protein)
chain: MMALSKKMLEQEPSEIELLLPWHAAGTLNARDARRVEDALARDPELAKQYAAIRGEYEETIHLNESLGAPSARAMQKLFGAIDAEPARETGSLPLSARIATFFASLSPRTLAWSASLGAVALVLQAGIIGAVLMKTQPTTFQTASLSTSAPITRELGAAVAPARALVRFTPEARVADITALLDSYQASIIGDAKGGMFRLQFDKAMSQDELASLLGRMQREKFVNLAVAAP
B2: AS38_1322 (protein)
chain: MSDGNDARPDARDGHDPGSDARDGHDPGSHARDGHDPGAGPFDGHGPGSDAGDGDDAGPDARDGHGAPAGPAGREQRKHPHDTHDMHDTHDTHAGKGTVNHGPAAQGPDAPGADGPATDEAALRAMMQRAVREMEPSDGTLEHLRRAVPARRARKRQALVGAAAAALFLGTAVPALVHVSNATGAGADPSVAGNASQAQGGASQGKDPAGGQSGVAGTGDTPEDRDKADPKETPGGKEPGAATGAPPSGVPSASSPADVPACAPGSLGPAVASSAEPDSTGVVYGSFRVTNVSSDGCTVTGPGTVVTASLGAAEATRIGTARHAAGDAAAGLPDPSLETASLALAPGAAYEVQFAWVPSETCPTTGGTTGGGSGGPSPDPSPTADTTAAGGTSAGGGEAGPTTQLITEDGPAEGSVSVTYTPEGGSGSATATVSNACAGTVYWTGLLADSGSGA
B3: AS31_34 (protein)
chain: MNKEKLSDHLKSEWKKIDQTANPSIPNQKELLHQLSQMKAEYRKKLLQEIILFVFCALMVVSAAILAFTQAPAVFIVLQVCVLAVLPILIAAEKKRHLGECEVKRG
B4: AS35_3582 (protein)
chain: MNPQKHSASVAEEQMLAHFRAHAPQQPAPALDQAILAAARRQAAHVEPARSWWRRWLEASRRPRWQAAFASLLGVALVLGLVSHNVLDDAERQARPEVAFSDVPLRDGVAGAAAAKRAMRAPAAPAPLSGEMSEPPALLASYASSGEAPQLMAEAAPPAPAALADRPPAQAAQQAKVQAALAGDFVAQARGKAVAVKPEVLDEALGAVLALREQGKTEQAATQLAELQKRFPGENLVERLERLATIAASARKRP
B5: AS30_35 (protein)
chain: MDKRLQQLREEYKNVQIPKELDIIVEKALQQEPKKKRIVMWPTSAAIAAAILFTALVNINPDAAQAMSKIPVIGKIVKAITFIEIKEEKDQSSIDVKTPALSGLSNKELENSINEKYLKESQQLYKEFIQSTSKNKKGHLSIYSDYETVTDTPDLLSIRRNIETTQASSYTQSRYITIDKKNDILLTLKSLFKDERYIKVISQNIKEQMKQQMKEDPNKIYWLTDEDAEPFKTILPDQTFYITEDHKLVISFDEYEVAPGYMGVTEFTIPTGVISNLLVGERYIR
B6: AS27_4265 (protein)
chain: MTGHPDVAEIADLAEGLLPTTRTTEVRQHLESCELCADVYASLTEIQGLLGTLPAPAPMPDDVAARIDAALAAEPPLGIADGTRVSRETSTPADRPAGHARPSSTGPGRKDRRRGGRRRIAVLGAVAAAAAIGIGSVVVSSLTEDSSSGNTAREQQTAIADTFSEGRLKDRVTNLVADGSAENGSRTPRSFGMESENGGETAENHVFKQPTVPECIRKGIGRDDAVIATEPGVYKGREALLVVLPDATNDTQVTAYIVETACVDQPAVGKAKILLEHSYARS
B7: AS37_2513 (protein)
chain: MSSAPATKEEVDFALKVRRALDERAASLPDATTDRLAAARRAALARKKPDAAIVLVPALAGSAGTLELRPPGEPRKSLARRLARAWPLALLLAGLIGIAYWEDMQRTAELADIDAAMLSDNLPLTAYLDHGFNAYLSHTH
B8: AS33_423 (protein)
chain: MMAMSNTMPDPREPGDVEALLPWYAAGTLNARDARRVADALDRDPALARQYAVILEEYASTIELNESLGAPSSRAMQKLFAAIDAEPARAPGAGQGLGARFAGFFAGLSPKALAWSASVAGLALLLQAGLIGALLTWPHAAPVQTAAYQPQREVARAPASSPAPATVSPPAAAMADRAADAGKSTPPMVMAERSGGPVVRSLAPQSGPRVLVKFAPEARASEIAALLDQYNAVVVDSSRGGLFRLQFGTQSLSKQDQETLIGRLQKEPVVSVVLSAP

Target: T1, ECF30_35
B1 showed a fold repression of 4.68. With B2 the fold repression was 3.08. B3 showed a fold repression of 1.68. Work on B4 yielded a fold repression of 2.03. B5 gave a fold repression of 55.4. B6 was tested, and the fold repression was 5.45. B7 was tested, and the fold repression was 3.08. With B8 the fold repression was 3.09.

Target: T2, ECF25_1645
Work on B1 yielded a fold repression of 5.35. For B2, the fold repression was 3.94. B3 showed a fold repression of 1.99. Binder B4 has a fold repression of 3.79. B5 was tested, and the fold repression was 1.69. Binder B6 has a fold repression of 1.02. B7 showed a fold repression of 3.92. B8 showed a fold repression of 3.68.

Target: T3, ECF38_1322
B1 gave a fold repression of 7.66. B2 gave a fold repression of 54.2. In the case of B3, the fold repression is reported as 2.06. B4 showed a fold repression of 3.42. Work on B5 yielded a fold repression of 1.84. B6 gave a fold repression of 1.36. Binder B7 has a fold repression of 2.73. B8 showed a fold repression of 5.66.

Target: T4, ECF37_2513
For B1, the fold repression was 13.5. With B2 the fold repression was 6.38. B3 showed a fold repression of 3.38. Work on B4 yielded a fold repression of 8.97. B5 showed a fold repression of 2.3. B6 showed a fold repression of 2.03. For B7, the fold repression was 13.5. B8 was tested, and the fold repression was 10.

Target: T5, ECF27_4265
With B1 the fold repression was 5.34. B2 was tested, and the fold repression was 2.33. With B3 the fold repression was 1.48. In the case of B4, the fold repression is reported as 2.28. For B5, the fold repression was 1.44. B6 was tested, and the fold repression was 152. B7 was tested, and the fold repression was 2.71. B8 gave a fold repression of 5.38.
